For this data set the following is noted: pH 7, reversible: no, whole UniProt chain shown; for denaturant m value / denaturant midpoint (higher = more stable): GdnHCl, Tris-HCl 50 mM; for Tm: Thermal, HEPES 20 mM.
Setting [1] is: Sulfolobus acidocaldarius (strain ATCC 33909 / DSM 639 / JCM 8929 / NBRC 15157 / NCIMB 11770), 25 °C, CD.
The mark [2] stands for this setting: Sulfolobus acidocaldarius (strain ATCC 33909 / DSM 639 / JCM 8929 / NBRC 15157 / NCIMB 11770), 25 °C, Fluorescence.
Where [3] appears, read: Sulfolobus acidocaldarius (strain ATCC 33909 / DSM 639 / JCM 8929 / NBRC 15157 / NCIMB 11770), 50 °C, CD.
[4] abbreviates: Thermus thermophilus (strain ATCC 27634 / DSM 579 / HB8), 25 °C, CD.
Setting [5] is: Thermus thermophilus (strain ATCC 27634 / DSM 579 / HB8), 25 °C, Fluorescence.
Where [6] appears, read: Escherichia coli (strain K12), 25 °C, CD.
The mark [7] stands for this setting: Escherichia coli (strain K12), 25 °C, Fluorescence.

As usually defined, the Tm is the temperature at the midpoint of the melting transition.

Several values for one entry are separate records, joined by “and”; a condition that tells them apart may be missing. Equal values may be shown once.

B1: Inorganic pyrophosphatase wild type, P50308 (protein)
chain: MKLSPGKNAPDVVNVLVEIPQGSNIKYEYDDEEGVIKVDRVLYTSMNYPFNYGFIPGTLEEDGDPLDVLVITNYQLYPGSVIEVRPIGILYMKDEEGEDAKIVAVPKDKTDPSFSNIKDINDLPQATKNKIVHFFEHYKELEPGKYVKISGWGSATEAKNRIQLAIKRVSGGQ
Take B1: the denaturant m value under setting [1] was determined as 5.5 kcal/mol/M; the denaturant m value under setting [2] is 8.13 kcal/mol/M and 6.93 kcal/mol/M and 5.98 kcal/mol/M; the denaturant m value under setting [3] is 6.93 kcal/mol/M and 5.74 kcal/mol/M. Besides, the “denaturant midpoint (higher = more stable)” value (“denaturant midpoint” for short) reads like this: under setting [1], 3.1 M; under setting [2], 3.2 M and 2.9 M and 3.1 M; under setting [3], 2.8 M and 2.9 M.

B2: Inorganic pyrophosphatase wild type, P38576 (protein)
chain: MANLKSLPVGDKAPEVVHMVIEVPRGSGNKYEYDPDLGAIKLDRVLPGAQFYPGDYGFIPSTLAEDGDPLDGLVLSTYPLLPGVVVEVRVVGLLLMEDEKGGDAKVIGVVAEDQRLDHIQDIGDVPEGVKQEIQHFFETYKALEAKKGKWVKVTGWRDRKAALEEVRACIARYKG
Turning to B2, the denaturant m value was found to be 5.74 kcal/mol/M under setting [4] and 5.74 kcal/mol/M under setting [5]. Moreover, the “denaturant midpoint” value by setting is: under setting [4], 4.7 M; under setting [5], 5.1 M and 4.7 M. Moreover, the Tm by setting is: (Thermus thermophilus (strain ATCC 27634 / DSM 579 / HB8), CD, EDTA 5 mM) 86 °C; (Thermus thermophilus (strain ATCC 27634 / DSM 579 / HB8), CD) 96 °C.

B3: Inorganic pyrophosphatase wild type, P0A7A9 (protein)
chain: MSLLNVPAGKDLPEDIYVVIEIPANADPIKYEIDKESGALFVDRFMSTAMFYPCNYGYINHTLSLDGDPVDVLVPTPYPLQPGSVIRCRPVGVLKMTDEAGEDAKLVAVPHSKLSKEYDHIKDVNDLPELLKAQIAHFFEHYKDLEKGKWVKVEGWENAEAAKAEIVASFERAKNK
In the case of B3, the denaturant m value is, setting by setting: under setting [6], 3.35 kcal/mol/M; under setting [7], 3.35 kcal/mol/M and 2.63 kcal/mol/M. The “denaturant midpoint” value is 4.9 M under setting [6]; 4.9 M and 4.5 M under setting [7]. In addition, the Tm (Escherichia coli (strain K12), CD, EDTA 5 mM) is 58 °C.

These data come from FireProtDB (doi:10.1006/abbi.1998.1072).
